Assay results taken from patent publication US11365219B2, “Cyclic peptides as protein targeting agents” (California Institute of Technology, priority 2013, dated 2022).
Values belong to the compound of their own block, whether it stands above or below them. Numbered stars: 1 amine (or outer) side, 2 acyl side, 3 side chain; on linkers, the order of the positions; unused ones are H or OH. Bridge positions count the residues as written; N and C are the ends. Square brackets hold non-standard residues; d marks the D form. Ends that are not written are not given here. Peptide text beside a SMILES is read from it. * marks the point of attachment. Biotin = O=C1N[C@H]2[C@H](CS[C@H]2CCCCC(=O)*)N1; X1 = O=C(CCCOCCOCCOCCOCCOCCN[*:1])[*:2]; Ethylenediamine = C(CN[*:2])N[*:1]; R8 = C=CCCCCCC[C@@](C)(N)C(=O)O; S5 = C=CCCC[C@](C)(N)C(=O)O; Pra = C#CC[C@H](N)C(=O)O

Experiments:
[1] = target: T1, PfLDH (Plasmodium falciparum, UniProt Q27743, A73S/D96L); assay: sandwich ELISA, NeutrAvidin-coated plates loaded with biotinylated ligand, pfLDH; assay type: binding; conditions: varying concentrations of pLDH in TBS
Description: (§1) The structure of the resulting binary ligand hevwh-YLGHK based on the hit sequence No. 1 and representative data is presented in FIG. 11. […] Similar ELISA was performed with pLDHs and human LDH (hLDH) in the presence of 1 and 5% (v/v) human serum to confirm the selectivity and high activity of the binary ligand in complex mixtures.

[2] = system: PvLDH; assay: sandwich ELISA, NeutrAvidin-coated plates loaded with biotinylated ligand, pvLDH; assay type: binding; conditions: varying concentrations of pLDH in TBS
Description: as §1

[3] = target: T1, PfLDH; assay: ELISA, biotinylated ligand on streptavidin plate, GST-PfLDH, antiGST-HRP detection; assay type: binding; conditions: 5 μM biotinylated ligand immobilized
Description: (§2) Hit sequence No. 6 (HWSAN (SEQ ID NO:11)) was identified for further testing against the whole PfLDH or PvLDH proteins, results of which are presented in FIG. 10. […] A RCM cyclized version of the HWSAN (SEQ ID NO:11) peptide was synthesized. 5 μM of the biotinylated ligands were immobilized on a streptavidin plate, blocked with 5% milk and then treated with GST-PfLDH or GST-PvLDH proteins overnight. The binding was detected using antiGST-HRP antibody.
To look at the selectivity of the ligand, a single point ELISA was done with the biotinylated ligand immobilized on the streptavidin plate and treating with 10 nM PfLDH or PvLDH protein in varying concentrations of human serum.

[4] = system: PvLDH; assay: ELISA, biotinylated ligand on streptavidin plate, GST-PvLDH, antiGST-HRP detection; assay type: binding; conditions: whole protein; 5 μM biotinylated ligand immobilized; FIG. 10
Description: as §2

[5] = target: T2, full-length Akt2 protein (Homo sapiens, UniProt P31751); assay: affinity estimation from immunoassays capturing full-length Akt2 protein (FIG. 6D); assay type: binding; conditions: cyclic vs linear peptide
T2 construct: compared against the corresponding linear peptide for capturing full-length Akt2 protein
Excerpt: (§3) The structure of an isolated hit, with sequence of variable region YYTYT (SEQ ID NO:4) is illustrated in FIG. 6A. […] FIG. 6D is an affinity estimation from immunoassays in which the Cy(YYTYT (SEQ ID NO:4)-Tz4) peptide is compared against the corresponding linear peptide for capturing full-length Akt2 protein. […] Finally, FIG. 6E presents selectivity assay data showing the relative binding of the cyclic peptide to the Akt2 protein, relative to the closely related Akt1 and Akt3 proteins. The sequence of the C-terminal regions for all three proteins is given.

[6] = target: Akt2 (Homo sapiens, UniProt P31751); assay: single point immunoassay, cyclic versus linear peptide (FIG. 6C); assay type: binding
Excerpt: The peptide libraries of Example 2 were screened against the C-terminal epitope of Akt2 that contains residues 450-481 as illustrated in FIG. 5. Those residues include the phosphorylation site […] which, for the screen exemplified in this example, was phosphorylated. The peptide libraries were first screened against synthetic peptide that represented a scrambled epitope of Akt2 450-481 to eliminate those library elements that bind to closely related epitopes. The remaining library elements were screened against a synthetically prepared polypeptide fragment representing the phosphorylated Akt2 C-terminus. The libraries A, B, C (from example 2) were all screened. Library C yielded hits, and the sequence of those hits (determined by Edman degradation) is shown in Table 3 (Tz4 indicates 4-carbon linker to triazole).
as §3

[7] = target: PfHRP2 protein (Plasmodium falciparum, UniProt P05227); assay: biochemical
Description: For the selectivity assay, the effect of binding of the ligand to the PfHRP2 protein with varying serum concentrations was determined.

T2 sequence (P31751 whole entry): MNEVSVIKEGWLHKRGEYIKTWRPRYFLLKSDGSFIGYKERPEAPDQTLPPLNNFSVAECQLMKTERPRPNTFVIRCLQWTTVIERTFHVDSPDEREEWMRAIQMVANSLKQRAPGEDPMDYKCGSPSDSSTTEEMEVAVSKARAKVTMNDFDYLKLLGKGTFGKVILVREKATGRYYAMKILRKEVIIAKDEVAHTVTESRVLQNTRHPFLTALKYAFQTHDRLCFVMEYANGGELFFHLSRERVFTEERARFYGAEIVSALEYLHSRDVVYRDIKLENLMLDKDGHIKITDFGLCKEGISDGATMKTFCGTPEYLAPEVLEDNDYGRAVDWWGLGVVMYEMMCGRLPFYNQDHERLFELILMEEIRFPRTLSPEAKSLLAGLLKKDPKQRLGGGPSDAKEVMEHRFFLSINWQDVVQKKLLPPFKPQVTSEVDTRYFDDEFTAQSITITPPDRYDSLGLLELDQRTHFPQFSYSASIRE
Sequence of Akt2 (P31751 whole entry, the tested form may be a part): as the sequence (P31751 whole entry) above

Compound: hevwh-YLGHK
affinity for pfLDH [1]: high affinity
affinity for pvLDH [2]: high affinity

Compound: HWSAN ([Pra]HWSAN; triazole (positions not given here); also: triazole cyclisation, partner residue not given here) [HWSAN (SEQ ID NO:11)]
selectivity between the PfLDH and PvLDH, triazole-cyclized versus RCM cyclic peptide ([3]; GST-PfLDH or GST-PvLDH overnight): higher selectivity
affinity for pfLDH ([3]; whole protein, FIG. 10): high affinity
affinity for pvLDH [4]: high affinity

Compound: RCM cyclic peptide: RCM cyclized version of the HWSAN peptide, biotinylated ligand (staple (positions not given here); also: RCM cyclized, olefinic residues not placed, biotinylated, site not given here)
affinity for PfLDH, RCM cyclic versus triazole-cyclized peptide ([3]; GST-PfLDH overnight): higher affinity

affinity relative to the corresponding linear peptide [5]: 30 fold
binding relative to the linear variant [6]: improved binding
Compound: Cy(YYTYT (SEQ ID NO:4)-Tz4) (triazole (positions not given here); also: Tz4: 4-carbon linker to triazole)

Compound: CC(C)C[C@@H]1NC(=O)[C@H](Cc2c[nH]c3ccccc23)NC(=O)[C@H](CCC(=O)O)NC(=O)[C@H]([C@@H](C)O)NC(=O)[C@H](CO)NC(=O)CNC(=O)[C@](C)(N)CCCCCC/C=C\CCC[C@@](C)(C(=O)NCCOCCOCCOCCOCCOCCCC(=O)NCCNC(=O)CCCC[C@@H]2SC[C@@H]3NC(=O)N[C@@H]32)NC1=O [biotinylated peptide] (H-[R8]GSTEWL[S5][X1]-{Ethylenediamine-Biotin}; staple (Z) 1-8)
EC50 [7]: 20 nM
